The data set addresses BPV1 E2 protein (Bovine papillomavirus 1, UniProt P03122 P03122:1-410). The experiment in a line: cell_activity. Conditions: chain copies: 2.

Sequence of BPV1 E2 protein (P03122 whole entry, one chain of several): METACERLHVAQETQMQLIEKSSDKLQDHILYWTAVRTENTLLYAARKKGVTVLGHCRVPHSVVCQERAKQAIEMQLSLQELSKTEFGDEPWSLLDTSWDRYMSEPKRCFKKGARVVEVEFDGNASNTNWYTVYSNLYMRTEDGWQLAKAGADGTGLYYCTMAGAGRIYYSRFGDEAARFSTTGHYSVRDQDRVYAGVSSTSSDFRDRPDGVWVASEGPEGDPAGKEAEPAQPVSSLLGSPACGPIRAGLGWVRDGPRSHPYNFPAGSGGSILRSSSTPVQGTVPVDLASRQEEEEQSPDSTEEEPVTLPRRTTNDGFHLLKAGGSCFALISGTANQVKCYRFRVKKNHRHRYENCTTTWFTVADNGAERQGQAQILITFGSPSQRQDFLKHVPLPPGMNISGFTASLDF

B1: BPV1 E2 binding sites (E2BS) (dsDNA)
DNA 1: ACCGTTGCCGGTCGGATCTGTACCGTTGCCGGTCGGATCTGTACCGTTGCCGGTCGGATCTGTACCGTTGCCGGTCGGATCTGTACCGTTGCCGGTCGGATCTGTACCGTTGCCGGTCGGATCTGTACCGTTGCCGGTCGGATCTGTACCGTTGCCGGTCGGATCTGTACCGTTGCCGGTC
DNA 2: GACCGGCAACGGTACAGATCCGACCGGCAACGGTACAGATCCGACCGGCAACGGTACAGATCCGACCGGCAACGGTACAGATCCGACCGGCAACGGTACAGATCCGACCGGCAACGGTACAGATCCGACCGGCAACGGTACAGATCCGACCGGCAACGGTACAGATCCGACCGGCAACGGT
Turning to B1, the binding signal is around 3.5 fold.
